The values below are quoted from earlier work in paper PMC4385930.

Data set [1] deals with Bax BH3 (Homo sapiens) (UniProt Q07812).
In data set [2] the target is Bim BH3 (Homo sapiens) (UniProt O43521).
Data set [3] deals with Bak BH3 (Homo sapiens) (UniProt Q16611).

By Kd is commonly meant a measure of binding affinity in units of concentration. Consider F1L (from UniProt P24356), for which the Kd in data set [1] was 2 µM; in data set [2], 0.2 µM; in data set [3] it was 4.3 µM.
